This test concerns the target Cry1Da receptor protein(s) / binding site in Spodoptera frugiperda (fall armyworm) brush border membrane vesicles (Spodoptera frugiperda). The test can be described thus: homologous competition: displacement of 0.5 nM 125I-Cry1Da core toxin from 150 ug/mL S. frugiperda BBMV.

The term IC50 denotes the concentration at which inhibition is half-maximal. Higher therefore signals weaker potency in that assay. For the substance “Cry1Da core toxin protein (non-radiolabeled) (from UniProt P19415 28-594)”, the IC50 amounted to 5 nM.
